Experimental data as given in patent US8956838B2, “Carboxyl esterase polypeptides” (B.R.A.I.N., priority 2006, dated 2015).

Columns and labels:
Format in all cases: biochemical
[1] = Titration assay with triglycerides; details: 10 mM, 37° C., pH 7.0
Method: (§1) Enzyme activities on the substrates triacetin, tripropionin, tributyrin, tricaprylene, trilaurin and vinyl-substrates (vinyl-acetate, ˜propionate, ˜butyrate, ˜caproate, ˜caprylate and ˜laurate) were determined using a standard titration assay with minor modifications. Tests were performed with a Methrom 718 STAT potentiometric titrator (Herisau, Switzerland) and by using 10 mM NaOH for titration. The substrates at 10 mM concentration were emulsified in 20 ml reaction buffer containing 2 mM Tris/HCl pH 7.0. After addition of 7.5 μg of the purified enzyme the NaOH consumption was recorded at a reaction temperature of 37° C. One unit was defined as the amount of enzyme that released […] of fatty acid per min.

[2] = Determination of pH optimum by titration; details: incubation for up to 48 hours, up to pH 12 (data not shown)
Method: The pH optimum for the enzymes was determined using tributyrin as substrate. The incubation conditions were 20 ml buffer (2.5 mM phosphate buffer [pH 4-7], 2.5 mM Tris/HCl buffer [pH 7-11] or 2.5 mM glycine buffer [pH 9-11], supplemented with 100 mM NaCl) stirred at a constant temperature of 37° C. The esterase substrate tributyrin (final concentration of 2 mM) was added to 5 ml of the corresponding buffer at 37° C., emulsified and added to the whole preparation. This substrate emulsion was held constant at the correct pH automatically by the titrator (718 STAT Titrino; Metrohm, Herisau, Switzerland) for 2 min and this served as the control. […]

[3] = Enzyme activity with pNP-acylesters of different chain length; details: 4 mM, 45° C., pH 7.2
Method: Enzyme activity tests were performed by incubating the enzyme with 4 mM substrate at 45° C. in 100 mM Tris-HCl buffer at pH 7.2, unless otherwise indicated. The reaction was measured at 410 nm. One unit is defined as the amount of enzyme catalyzing the appearance of 1 μmol of free p-nitrophenol/min. Enzyme activity against pNP-acylesters (butyrate, valerate, caproate, octanoate, decanoate and palmitate) was tested under the above conditions. […] The enzyme according to SEQ ID NO: 6 converted pNP-caproate with a specific activity of 80.0 U/mg.

[4] = Determination of thermal stability
Method: To assay the thermostability of the enzymes they were incubated at different temperatures for one hour and the residual activity assayed at 10 minute intervals. Residual activity was measured using pNP-caproate as substrate as described above.

[5] = Solvent stability, residual activity; details: 1 h at 30° C., measured at 45° C.
Method: The stability of the enzymes was determined in the presence of the following solvents: DMSO, isopropanol, methanol, dimethylformamide, acetone and acetonitrile. The enzymes were incubated for 1 hour at 30° C. in the presence of either 15% (v/v) or 30% (v/v) of the solvents and the residual activity was measured at 45° C. The substrate used was pNP-butyrate.

[6] = Titration assay with vinyl acid esters; details: 10 mM, 37° C., pH 7.0
Method: as §1

[7] = Enantioselectivity, GC analysis of hydrolysis of acetic acid esters; details: for conversion %: ^2 only complete conversion could be measured
Method: To assay the activity of the enzymes on a range of acetic acid esters gas chromatography was used. The samples were analyzed for the production of chiral alcohols by the gas chromatograph GC-17A (Shimadzu, Duisburg, Germany) equipped with FID detector and CP-Chirasil-DEX CB (Chrompack (Middelburg, Netherlands), 25 m×0.25 mm ID) at a helium flow of 1.3 ml/min. The temperature programme included: 5 min at 60° C., followed by an increase of 5° C. per min until 190° C. was reached. For the GC analysis, activity-tests were run in 1 M Tris buffered solutions and using 10 mM substrates dissolved in DMSO as 0.1 M stock solutions. 2 μg of the enzyme were added and tests incubated over night before the corresponding alcohols could be extracted by treatment with acetic acid ethyl ester and analyzed by GC.

[8] = Effect of bivalent cations and EDTA on catalytic activity
[9] = substrate Acetic acid ester of tetrahydronaphthylamin
[10] = substrate acetic acid ester of (+/−)-1-octin-3-ol, 10 mM, over night
[11] = substrate acetic acid ester of cis-1,2-cyclohexandiol, values marked ^1: substrate conversion after 12 h
[12] = substrate acetic acid ester of phenylethylamin
[13] = substrate acetic acid ester of trans-1,2-cyclohexandiol
[14] = substrate cis-3,5-diacetoxy-1-cyclopenten
[15] = substrate isopropylidenglycerolacetate (rac.), values marked ^1: substrate conversion after 12 h

B1: EstCE1: recombinant enzyme having carboxyl esterase activity, amino acid sequence SEQ ID NO: 4, family VIII of bacterial lipolytic enzymes (protein)
chain: MSIADQSLAKRVQGVSQQAIDEGRIVGSVVLIARHGRVIYANASGYADREQKKPMVRETQFRLSSVSKPYITLAAMRMIEQQKLGLDDTVSRWLPWFTPALADGVRPPIKIRHLLSHTAGLDYRLSQPAEGPYHRLGIKDGMELSSLTLEQNLRLLAQADLLAEPGSEFRYSLAIDVLGAVLEQVAGEPLPQVFNHWVAQPLGLRNTGFYTTDVDNLATAYHDTAAEPEPIRDGMLLTLPEGFGFEIELAPSRALDAQAYPSGGAGMVGDADDVLQLVETLRTGKEGILQPATAALMRQAHVGSHAETQGPGWGFGFGGAVLEDAQLAATPQHNGTLQWGGVYGHSWFYDPQAAISVVALTNTAFEGMSGRYPLQIRDAVYGTNEPTR
modifications: metagenomic sequence
For B1, the specific activity ([1]; substrate triacetin (C2)) was 26.7 U/mg, the specific activity ([1]; substrate tributyrin (C4)) was 54.7 U/mg and the specific activity ([1]; substrate tricaprylin (C8)) was 0 U/mg. For the same molecule, the specific activity ([1]; substrate trilaurin (C12)) was 0 U/mg, the specific activity ([1]; substrate tripropionin (C3)) was 33.3 U/mg and the “stability under alkaline conditions, in words” value [2] was “extremely stable with little loss of activity”. For the same molecule, the specific activity ([3]; substrate pNP-butyrate (C4)) was 31.1 U/mg, the specific activity ([3]; substrate pNP-caproate (C6)) was 7.4 U/mg and the specific activity ([3]; substrate pNP-decanoate (C10)) was 0.9 U/mg. It also gave a specific activity ([3]; substrate pNP-octanoate (C8)) of 1.0 U/mg, a specific activity ([3]; substrate pNP-palmitate (C16)) of 0.0 U/mg and a specific activity ([3]; substrate pNP-valerate (C5)) of 22.9 U/mg. The “thermal stability, in words” value ([4]; incubated for at least 60 minutes at 40° C.) was “without a major loss of activity”, the “thermal stability, in words” value ([4]; incubation at temperatures above 45° C. for more than 60 minutes (data not shown)) was “rapid inactivation” and the “Residual activity after 1 h incubation in the presence of solvent” value (“Residual activity after 1 h incubation” for short) ([5]; 15% (v/v) Acetone) was 14%. The “Residual activity after 1 h incubation” value ([5]; 15% (v/v) Acetonitrile) was 0%, the “Residual activity after 1 h incubation” value ([5]; 15% (v/v) DMSO) was 103% and the “Residual activity after 1 h incubation” value ([5]; 15% (v/v) Dimethylformamid) was 34%. For the same molecule, the “Residual activity after 1 h incubation” value ([5]; 15% (v/v) Isopropanol) was 75%, the “Residual activity after 1 h incubation” value ([5]; 15% (v/v) Methanol) was 90% and the “Residual activity after 1 h incubation” value ([5]; 30% (v/v) Acetone) was 0%. For the same molecule, the “Residual activity after 1 h incubation” value ([5]; 30% (v/v) Acetonitrile) was 0%, the “Residual activity after 1 h incubation” value ([5]; 30% (v/v) DMSO) was 17% and the “Residual activity after 1 h incubation” value ([5]; 30% (v/v) Dimethylformamid) was 0%. For the same molecule, the “Residual activity after 1 h incubation” value ([5]; 30% (v/v) Isopropanol) was 23%, the “Residual activity after 1 h incubation” value ([5]; 30% (v/v) Methanol) was 0% and the specific activity ([6]; substrate vinyl acetate (C2)) was 13.3 U/mg. For the same molecule, the specific activity ([6]; substrate vinyl butyrate (C4)) was 16.0 U/mg, the specific activity ([6]; substrate vinyl caproate (C6)) was 0 U/mg and the specific activity ([6]; substrate vinyl caprylate (C8)) was 0 U/mg. For the same molecule, the specific activity ([6]; substrate vinyl laurinate (C12)) was 0 U/mg, the specific activity ([6]; substrate vinyl propionate (C3)) was 13.3 U/mg and the “hydrolysis, in words” value ([7]; acetic acid ester of R-(+)-3-chlor-1-phenyl-1-propanol) was “capable of hydrolyzing”. For the same molecule, the “conversion, in words” value ([7]; acetic acid ester of cis-1,2-cyclohexanediol) was “capable of converting”, the “conversion, in words” value ([7]; acetic acid ester of isopropylidene glycerol) was “capable of converting” and the “hydrolysis, in words” value ([7]; acetic acid ester of rac-1-octin-3-ol) was “capable of hydrolyzing”. The “hydrolysis, in words” value ([7]; acetic acid ester of trimethylsilylbutinol) was “capable of hydrolyzing”, the “conversion % of 1.e” value [7, 9] was 0% and the “conversion % of 2.e” value [7, 9] was 0%. The ee % ([7]; substrate acetic acid ester of (+/−)-1-octin-3-ol) was 3%, the “conversion % of 1.e” value [7, 10] was 64% and the “conversion % of 2.e” value [7, 10] was 60%. The conversion % ([7]; substrate acetic acid ester of R-(+)-3-chlor-1-phenyl-1-propanol) was 100^2%, the ee % ([7]; substrate acetic acid ester of cis-1,2-cyclohexandiol) was 0% and the “conversion % of 1.e” value [7, 11] was 100^1%. The “conversion % of 2.e” value [7, 11] was 100^1%, the “conversion % of 1.e” value [7, 12] was 0% and the “conversion % of 2.e” value [7, 12] was 0%. For the same molecule, the “conversion % of 2.e” value [7, 13] was 45%, the ee % [7, 13] was 38% and the “conversion % of 1.e” value ([7]; substrate acetic acid ester of trans-1,2-cyclohexandiol, in text: conversion of the preferred enantiomer) was 100%. For the same molecule, the conversion % ([7]; substrate acetic acid ester of trimethylsilylbutinol) was 100^2%, the “conversion % of 2.e” value [7, 14] was 59% and the ee % [7, 14] was 66%. For the same molecule, the “conversion % of 1.e” value ([7]; substrate cis-3,5-diacetoxy-1-cyclopenten, conversion for the preferred enantiomer) was 12%, the ee % ([7]; substrate isopropylidenglycerolacetate (rac.)) was 0% and the “conversion % of 1.e” value [7, 15] was 100^1%. For the same molecule, the “conversion % of 2.e” value [7, 15] was 100^1%, the ee % ([7]; substrate menthylacetate (rac), for the (+)-enantiomer) was 100% and the “conversion % of 1.e” value ([7]; substrate menthylacetate, 1. enantiomer (+)) was 100%. For the same molecule, the “conversion % of 2.e” value ([7]; substrate menthylacetate, 2.e. (−)) was 0%, the “stimulatory effect on catalytic activity” value ([8]; in the presence of Ca^2+) was 118% and the “stimulatory effect on catalytic activity” value ([8]; in the presence of Mg^2+) was 108%.
